Read-outs that look alike come from different tables or passages of the source.
What was measured:
[1] = molecular target: T1, thrombin (Amersham Biosciences) (human, UniProt P00734;P00734 315-363;364-622); test: filter binding
[2] = molecular target: T1, thrombin (Amersham Biosciences); test: filter binding; remark: listed apart in the source

GGACUUCGGUCC (structured_RNA) [H1 RNA hairpin control]
binding result [1]: no binding

GTCTCTTGTGTGACTCTGGTAAC (ssDNA) [P8 ssDNA control]
binding result [2]: no binding

Reference: paper PMC1976452
